# Assay results as given in patent US20180346602A1.
# Residue numbers refer to the chain shown, from its start.
# B1: anti-AAA variant Fc-region antibody M1.6.22 (antibody, V domains shown)
# VH: EVQLVESGGDLVKPGGSLKLSCAASGFTFSSYGMSWVRQTPDKRLEWVATISSGGSYIYYPDSVKGRFTISRDNAKNTLYLQMSSLKSEDTAMYYCARLGMITTGYAMDYWGQGTSVTVSS
# VL: DVLMTQTPLSLPVSLGDQASISCRSSQTIVHSTGHTYLEWFLQKPGQSPKLLIYKVSNRFSGVPDRFSGSGSGTDFTLKISRVEAEDLGVYYCFQGSHVPYTFGGGTKLEIK
# B2: anti-variant (human) Fc-region antibody M1.3.17 (antibody, V domains shown)
# VH: EVKLLESGGGLVQPGGSLKLSCAASGIDFRRYWMNWVRQAPGKGLEWIGEIDPDSSTINYTPSLKDKFIISRDNAKNTMYLQMRKVRSEDTALYYCARPYDYGAWFAYWGQGTLVTVSA
# VL: QAVVTQESALTTSPGETVTLTCRSTTGAVTTSNYANWVQEKPDHLFTGLIGGTNKRAPGVPARFSGSLIGDKAALTITGAQTEDEAIYFCALWYSDHWVFGGGTKLTVL
# B3: anti-variant (human) Fc-region antibody M1.7.24 (antibody, V domains shown)
# VH: B2 VH with I27F, R30S, D52T, M79L, R84I, A97V, Y108S
# VL: B2 VL with T25S, D96N
# Target: anti-VEGF/ANG2 antibody (IgG1 subclass with mutations P329G/L234A/L235A/I253A/H310A/H435A) [IgG part: P01857]
# Test: sandwich ELISA assay A; capture M1.7.10-Bi; antibody 1 at 2 ng/mL
row,signal [OD405 nm],Binder
1,0.055 OD405 nm,B1
2,0.043 OD405 nm,B2
3,0.042 OD405 nm,B3

# Target: anti-VEGF/ANG2 antibody (IgG1 subclass with mutations P329G/L234A/L235A/I253A/H310A/H435A) [IgG part: P01857]
# Test: sandwich ELISA assay A; capture M1.7.10-Bi; antibody 1 at 3 ng/mL
row,signal [OD405 nm],Binder
1,0.057 OD405 nm,B1
2,0.038 OD405 nm,B2
3,0.046 OD405 nm,B3

# Target: anti-VEGF/ANG2 antibody (IgG1 subclass with mutations P329G/L234A/L235A/I253A/H310A/H435A) [IgG part: P01857]
# Test: sandwich ELISA assay A; capture M1.7.10-Bi; antibody 1 at 50 ng/mL
row,signal [OD405 nm],Binder
1,0.06 OD405 nm,B1
2,0.043 OD405 nm,B2
3,0.051 OD405 nm,B3

# Target: anti-VEGF/ANG2 antibody (IgG1 subclass with mutations P329G/L234A/L235A) [IgG part: P01857]
# Test: sandwich ELISA assay A; capture M1.7.10-Bi; antibody 2 at 25 ng/mL
row,signal [OD405 nm],Binder
1,0.06 OD405 nm,B1
2,2.93 OD405 nm,B2
3,2.61 OD405 nm,B3

# Target: anti-P-Selectin antibody (IgG4 subclass with mutations S228P/L235E) [IgG part: P01861]
# Test: sandwich ELISA assay A; capture M1.7.10-Bi; antibody 4 at 50 ng/mL
row,signal [OD405 nm],Binder
1,0.052 OD405 nm,B1
2,0.037 OD405 nm,B2
3,0.049 OD405 nm,B3

# Target: anti-IGF-1R antibody (IgG1 subclass with mutations I253A/H310A/H435A) [IgG part: P01857]
# Test: sandwich ELISA assay A; capture M1.7.10-Bi; antibody 3 at 100 ng/mL
row,signal [OD405 nm],Binder
1,2.89 OD405 nm,B1
2,0.047 OD405 nm,B2
3,0.06 OD405 nm,B3

# Target: anti-VEGF/ANG2 antibody (IgG1 subclass with mutations P329G/L234A/L235A) [IgG part: P01857]
# Test: sandwich ELISA assay A; capture M1.7.10-Bi; antibody 2 at 0 ng/mL (blank)
row,signal [OD405 nm],Binder
1,0.048 OD405 nm,B1
2,0.042 OD405 nm,B2
3,0.043 OD405 nm,B3

# Target: anti-P-Selectin antibody (IgG4 subclass with mutations S228P/L235E) [IgG part: P01861]
# Test: sandwich ELISA assay A; capture M1.7.10-Bi; antibody 4 at 0 ng/mL (blank)
row,signal [OD405 nm],Binder
1,0.043 OD405 nm,B1
2,0.036 OD405 nm,B2
3,0.045 OD405 nm,B3

# Target: anti-VEGF/ANG2 antibody (wild-type IgG1 subclass) [IgG part: P01857]
# Test: sandwich ELISA assay A; capture M1.7.10-Bi; antibody 5 at 0 ng/mL (blank)
row,signal [OD405 nm],Binder
1,0.042 OD405 nm,B1
2,0.036 OD405 nm,B2
3,0.041 OD405 nm,B3

# Target: anti-IGF-1R antibody (IgG1 subclass with mutations I253A/H310A/H435A) (human) [IgG part: P01857]
# Test: sandwich ELISA assay C; capture on SA plate; tracer FcγRI-Dig; analyte 2 ng/mL
row,signal [OD405 nm],Binder
1,0.082 OD405 nm,B1
2,1.26 OD405 nm,B2
3,0.074 OD405 nm,B3

# Target: anti-P-Selectin antibody (IgG4 subclass with mutations S228P/L235E) (human) [IgG part: P01861]
# Test: as above
row,signal [OD405 nm],Binder
1,0.067 OD405 nm,B1
2,1.19 OD405 nm,B2
3,0.056 OD405 nm,B3

# Target: anti-VEGF/ANG2 antibody (IgG1 subclass with mutations P329G/L234A/L235A) (human) [IgG part: P01857]
# Test: as above
row,signal [OD405 nm],Binder
1,0.072 OD405 nm,B1
2,1.22 OD405 nm,B2
3,0.093 OD405 nm,B3

# Target: anti-VEGF/ANG2 antibody (IgG1 subclass with mutations P329G/L234A/L235A/I253A/H310A/H435A) (human) [IgG part: P01857]
# Test: as above
row,signal [OD405 nm],Binder
1,0.077 OD405 nm,B1
2,1.17 OD405 nm,B2
3,0.085 OD405 nm,B3

# Target: anti-IGF-1R antibody (IgG1 subclass with mutations I253A/H310A/H435A) (human) [IgG part: P01857]
# Test: sandwich ELISA assay C; capture on SA plate; tracer FcγRI-Dig; analyte 25 ng/mL
row,signal [OD405 nm],Binder
1,0.401 OD405 nm,B1
2,1.2 OD405 nm,B2
3,0.073 OD405 nm,B3

# Target: anti-P-Selectin antibody (IgG4 subclass with mutations S228P/L235E) (human) [IgG part: P01861]
# Test: as above
row,signal [OD405 nm],Binder
1,0.06 OD405 nm,B1
2,1.17 OD405 nm,B2
3,0.07 OD405 nm,B3

# Target: anti-VEGF/ANG2 antibody (IgG1 subclass with mutations P329G/L234A/L235A) (human) [IgG part: P01857]
# Test: as above
row,signal [OD405 nm],Binder
1,0.063 OD405 nm,B1
2,1.21 OD405 nm,B2
3,0.083 OD405 nm,B3

# Target: anti-VEGF/ANG2 antibody (IgG1 subclass with mutations P329G/L234A/L235A/I253A/H310A/H435A) (human) [IgG part: P01857]
# Test: as above
row,signal [OD405 nm],Binder
1,0.081 OD405 nm,B1
2,1.07 OD405 nm,B2
3,0.082 OD405 nm,B3

# Target: anti-IGF-1R antibody (IgG1 subclass with mutations I253A/H310A/H435A) (human) [IgG part: P01857]
# Test: sandwich ELISA assay C; capture on SA plate; tracer FcγRI-Dig; analyte 100 ng/mL
row,signal [OD405 nm],Binder
1,2.1 OD405 nm,B1
2,1.2 OD405 nm,B2
3,0.11 OD405 nm,B3

# Target: anti-P-Selectin antibody (IgG4 subclass with mutations S228P/L235E) (human) [IgG part: P01861]
# Test: as above
row,signal [OD405 nm],Binder
1,0.069 OD405 nm,B1
2,1.17 OD405 nm,B2
3,0.08 OD405 nm,B3

# Target: anti-VEGF/ANG2 antibody (IgG1 subclass with mutations P329G/L234A/L235A) (human) [IgG part: P01857]
# Test: as above
row,signal [OD405 nm],Binder
1,0.076 OD405 nm,B1
2,1.22 OD405 nm,B2
3,0.082 OD405 nm,B3

# Target: anti-VEGF/ANG2 antibody (IgG1 subclass with mutations P329G/L234A/L235A/I253A/H310A/H435A) (human) [IgG part: P01857]
# Test: as above
row,signal [OD405 nm],Binder
1,0.079 OD405 nm,B1
2,1.19 OD405 nm,B2
3,0.05 OD405 nm,B3

# Target: anti-IGF-1R antibody (IgG1 subclass with mutations I253A/H310A/H435A) (human) [IgG part: P01857]
# Test: sandwich ELISA assay B; capture on SA plate; tracer M1.7.10-Dig; analyte 25 ng/mL
row,signal [OD405 nm],Binder
1,2.89 OD405 nm,B1
2,0.046 OD405 nm,B2
3,0.048 OD405 nm,B3

# Target: anti-P-Selectin antibody (IgG4 subclass with mutations S228P/L235E) (human) [IgG part: P01861]
# Test: as above
row,signal [OD405 nm],Binder
1,0.048 OD405 nm,B1
2,0.047 OD405 nm,B2
3,0.04 OD405 nm,B3

# Target: anti-VEGF/ANG2 antibody (IgG1 subclass with mutations P329G/L234A/L235A) (human) [IgG part: P01857]
# Test: as above
row,signal [OD405 nm],Binder
1,0.092 OD405 nm,B1
2,0.213 OD405 nm,B2
3,3.16 OD405 nm,B3

# Target: anti-VEGF/ANG2 antibody (IgG1 subclass with mutations P329G/L234A/L235A/I253A/H310A/H435A) (human) [IgG part: P01857]
# Test: as above
row,signal [OD405 nm],Binder
1,0.044 OD405 nm,B1
2,0.035 OD405 nm,B2
3,0.047 OD405 nm,B3
